A short description of this series: Sedimentation rate / physical stability of micronized drug dispersions in HFA227 with or without chitosan-PLA nanoparticles. The procedure: Sedimentation rate of micronized insulin in HFA 227 were conducted to test the physical stability of dispersions.
[1] abbreviates: pure (bare) drug particles in HFA227.

As to insulin, the creaming of dispersion result under setting [1] is on record as “creaming out in seconds”. The redispersibility result is reported as “not being redispersible” under setting [1] and “can be redispersed simply by hand-shaking even after several days of storage” (with chitosan-PLA nanoparticles, HFA227, after storage). Also, the “physical stability of dispersion” value was “poor stability” (pure (bare) drug particles, 2 mg/ml in HFA227, 298K, saturation pressure) and “improved” (upon addition of chitosan-PLA nanoparticles (1 or 2 mg/ml), HFA227).
